Measurements from US20060263361A1.
Values joined by “and” are separate entries in the source; they are usually repeats but may differ in a detail not shown here. Equal entries are not always repeated.

Experiments:
[1] = molecular target: recombinant KIR2DL1 protein (entire extracellular domain, produced in E. coli, immobilized) (human) (UniProt P43626); test: Biacore, KIR2DL1 chip; first Ab DF200 vs competitor (second Ab) 1-7F9
[2] = molecular target: recombinant KIR2DL3 protein (entire extracellular domain, produced in E. coli, immobilized) (human) (UniProt P43628); test: Biacore, KIR2DL3 chip; first Ab DF200 vs competitor (second Ab) 1-4F1
[3] = molecular target: immobilized KIR 2DS1 (UniProt Q14954); test: Biacore, KIR2DS1 chip; first Ab DF200 vs competitor (second Ab) 1-7F9
[4] = molecular target: immobilized KIR 2DS1 (UniProt Q14954); test: Biacore, KIR2DS1 chip; first Ab DF200 vs competitor (second Ab) 1-4F1
[5] = molecular target: recombinant KIR2DL1 protein (entire extracellular domain, produced in E. coli, immobilized) (human) (UniProt P43626); test: Biacore, KIR2DL1 chip; first Ab DF200 vs competitor (second Ab) 1-6F1
[6] = molecular target: immobilized KIR 2DS1 (UniProt Q14954); test: Biacore, KIR2DS1 chip; second Ab injected alone
[7] = molecular target: recombinant KIR2DL1 protein (entire extracellular domain, produced in E. coli, immobilized) (human) (UniProt P43626); test: Biacore, KIR2DL1 chip; first Ab DF200 vs competitor (second Ab) 1-4F1
[8] = molecular target: recombinant KIR2DL3 protein (entire extracellular domain, produced in E. coli, immobilized) (human) (UniProt P43628); test: Biacore, KIR2DL3 chip; first Ab DF200 vs competitor (second Ab) Pan2D
[9] = molecular target: recombinant KIR2DL1 protein (entire extracellular domain, produced in E. coli, immobilized) (human) (UniProt P43626); test: Biacore, KIR2DL1 chip; first Ab DF200 vs competitor (second Ab) EB6
[10] = molecular target: recombinant KIR2DL1 protein (entire extracellular domain, produced in E. coli, immobilized) (human) (UniProt P43626); test: Biacore, KIR2DL1 chip; second Ab injected alone
[11] = molecular target: recombinant KIR2DL3 protein (entire extracellular domain, produced in E. coli, immobilized) (human) (UniProt P43628); test: Biacore, KIR2DL3 chip; first Ab DF200 vs competitor (second Ab) gl183
[12] = molecular target: recombinant KIR2DL1 protein (entire extracellular domain, produced in E. coli, immobilized) (human) (UniProt P43626); test: Biacore, KIR2DL1 chip; first Ab DF200 vs competitor (second Ab) 1-6F5
[13] = molecular target: recombinant KIR2DL3 protein (entire extracellular domain, produced in E. coli, immobilized) (human) (UniProt P43628); test: Biacore, KIR2DL3 chip; first Ab DF200 vs competitor (second Ab) 1-6F5
[14] = molecular target: recombinant KIR2DL3 protein (entire extracellular domain, produced in E. coli, immobilized) (human) (UniProt P43628); test: Biacore, KIR2DL3 chip; first Ab DF200 vs competitor (second Ab) 1-6F1
[15] = molecular target: recombinant KIR2DL1 protein (entire extracellular domain, produced in E. coli, immobilized) (human) (UniProt P43626); test: Biacore, KIR2DL1 chip; first Ab DF200 vs competitor (second Ab) Pan2D
[16] = molecular target: immobilized KIR 2DS1 (UniProt Q14954); test: Biacore, KIR2DS1 chip; first Ab DF200 vs competitor (second Ab) Pan2D
[17] = molecular target: recombinant KIR2DL3 protein (entire extracellular domain, produced in E. coli, immobilized) (human) (UniProt P43628); test: Biacore, KIR2DL3 chip; first Ab DF200 vs competitor (second Ab) 1-7F9
[18] = molecular target: recombinant KIR2DL3 protein (entire extracellular domain, produced in E. coli, immobilized) (human) (UniProt P43628); test: Biacore, KIR2DL3 chip; first Ab gl183 vs competitor (second Ab) 1-7F9
[19] = molecular target: recombinant KIR2DL3 protein (entire extracellular domain, produced in E. coli, immobilized) (human) (UniProt P43628); test: Biacore, KIR2DL3 chip; second Ab injected alone
[20] = molecular target: recombinant KIR2DL3 protein (entire extracellular domain, produced in E. coli, immobilized) (human) (UniProt P43628); test: Biacore, KIR2DL3 chip; first Ab gl183 vs competitor (second Ab) 1-6F1
[21] = molecular target: recombinant KIR2DL3 protein (entire extracellular domain, produced in E. coli, immobilized) (human) (UniProt P43628); test: Biacore, KIR2DL3 chip; first Ab gl183 vs competitor (second Ab) DF200
[22] = molecular target: recombinant KIR2DL3 protein (entire extracellular domain, produced in E. coli, immobilized) (human) (UniProt P43628); test: Biacore, KIR2DL3 chip; first Ab gl183 vs competitor (second Ab) 1-4F1
[23] = molecular target: recombinant KIR2DL3 protein (entire extracellular domain, produced in E. coli, immobilized) (human) (UniProt P43628); test: Biacore, KIR2DL3 chip; first Ab gl183 vs competitor (second Ab) Pan2D
[24] = molecular target: recombinant KIR2DL1 protein (entire extracellular domain, produced in E. coli, immobilized) (human) (UniProt P43626); test: Biacore, KIR2DL1 chip; first Ab Pan2D vs competitor (second Ab) 1-4F1
[25] = molecular target: recombinant KIR2DL1 protein (entire extracellular domain, produced in E. coli, immobilized) (human) (UniProt P43626); test: Biacore, KIR2DL1 chip; first Ab Pan2D vs competitor (second Ab) 1-6F1
[26] = molecular target: immobilized KIR 2DS1 (UniProt Q14954); test: Biacore, KIR2DS1 chip; first Ab Pan2D vs competitor (second Ab) 1-4F1
[27] = molecular target: recombinant KIR2DL3 protein (entire extracellular domain, produced in E. coli, immobilized) (human) (UniProt P43628); test: Biacore, KIR2DL3 chip; first Ab Pan2D vs competitor (second Ab) 1-4F1
[28] = molecular target: immobilized KIR 2DS1 (UniProt Q14954); test: Biacore, KIR2DS1 chip; first Ab Pan2D vs competitor (second Ab) DF200
[29] = molecular target: recombinant KIR2DL3 protein (entire extracellular domain, produced in E. coli, immobilized) (human) (UniProt P43628); test: Biacore, KIR2DL3 chip; first Ab Pan2D vs competitor (second Ab) DF200
[30] = molecular target: recombinant KIR2DL3 protein (entire extracellular domain, produced in E. coli, immobilized) (human) (UniProt P43628); test: Biacore, KIR2DL3 chip; first Ab Pan2D vs competitor (second Ab) 1-6F5
[31] = molecular target: recombinant KIR2DL1 protein (entire extracellular domain, produced in E. coli, immobilized) (human) (UniProt P43626); test: Biacore, KIR2DL1 chip; first Ab Pan2D vs competitor (second Ab) DF200
[32] = molecular target: recombinant KIR2DL3 protein (entire extracellular domain, produced in E. coli, immobilized) (human) (UniProt P43628); test: Biacore, KIR2DL3 chip; first Ab Pan2D vs competitor (second Ab) 1-7F9
[33] = molecular target: recombinant KIR2DL1 protein (entire extracellular domain, produced in E. coli, immobilized) (human) (UniProt P43626); test: Biacore, KIR2DL1 chip; first Ab Pan2D vs competitor (second Ab) 1-7F9
[34] = molecular target: recombinant KIR2DL1 protein (entire extracellular domain, produced in E. coli, immobilized) (human) (UniProt P43626); test: Biacore, KIR2DL1 chip; first Ab Pan2D vs competitor (second Ab) EB6
[35] = molecular target: recombinant KIR2DL3 protein (entire extracellular domain, produced in E. coli, immobilized) (human) (UniProt P43628); test: Biacore, KIR2DL3 chip; first Ab Pan2D vs competitor (second Ab) 1-6F1
[36] = molecular target: immobilized KIR 2DS1 (UniProt Q14954); test: Biacore, KIR2DS1 chip; first Ab Pan2D vs competitor (second Ab) 1-7F9
[37] = molecular target: recombinant KIR2DL3 protein (entire extracellular domain, produced in E. coli, immobilized) (human) (UniProt P43628); test: Biacore, KIR2DL3 chip; first Ab Pan2D vs competitor (second Ab) gl183
[38] = molecular target: recombinant KIR2DL1 protein (entire extracellular domain, produced in E. coli, immobilized) (human) (UniProt P43626); test: Biacore, KIR2DL1 chip; first Ab Pan2D vs competitor (second Ab) 1-6F5
[39] = molecular target: recombinant KIR2DL1 protein (entire extracellular domain, produced in E. coli, immobilized) (human) (UniProt P43626); test: Biacore, KIR2DL1 chip; first Ab EB6 vs competitor (second Ab) 1-6F1
[40] = molecular target: recombinant KIR2DL1 protein (entire extracellular domain, produced in E. coli, immobilized) (human) (UniProt P43626); test: Biacore, KIR2DL1 chip; first Ab EB6 vs competitor (second Ab) 1-7F9
[41] = molecular target: recombinant KIR2DL1 protein (entire extracellular domain, produced in E. coli, immobilized) (human) (UniProt P43626); test: Biacore, KIR2DL1 chip; first Ab EB6 vs competitor (second Ab) DF200
[42] = molecular target: recombinant KIR2DL1 protein (entire extracellular domain, produced in E. coli, immobilized) (human) (UniProt P43626); test: Biacore, KIR2DL1 chip; first Ab EB6 vs competitor (second Ab) EB6 (self)
[43] = molecular target: recombinant KIR2DL1 protein (entire extracellular domain, produced in E. coli, immobilized) (human) (UniProt P43626); test: Biacore, KIR2DL1 chip; first Ab EB6 vs competitor (second Ab) Pan2D
[44] = molecular target: recombinant KIR2DL1 protein (entire extracellular domain, produced in E. coli, immobilized) (human) (UniProt P43626); test: Biacore, KIR2DL1 chip; first Ab EB6 vs competitor (second Ab) 1-4F1

recombinant KIR2DL1 protein (entire extracellular domain, produced in E. coli, immobilized) (human), sequence (P43626 22-245): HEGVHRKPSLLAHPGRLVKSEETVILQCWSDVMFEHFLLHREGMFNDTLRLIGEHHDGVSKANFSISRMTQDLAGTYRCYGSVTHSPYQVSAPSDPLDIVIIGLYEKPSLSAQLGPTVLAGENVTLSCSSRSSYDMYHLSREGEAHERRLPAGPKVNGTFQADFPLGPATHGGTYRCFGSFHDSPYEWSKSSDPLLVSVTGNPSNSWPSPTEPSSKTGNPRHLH
immobilized KIR 2DS1, sequence (Q14954 22-245 limits assumed): as the sequence (P43626 22-245) above, with T70K, V90L, L114P, P154T, D163N, H182R, K216E counted along it
recombinant KIR2DL3 protein (entire extracellular domain, produced in E. coli, immobilized) (human), sequence (P43628 22-245): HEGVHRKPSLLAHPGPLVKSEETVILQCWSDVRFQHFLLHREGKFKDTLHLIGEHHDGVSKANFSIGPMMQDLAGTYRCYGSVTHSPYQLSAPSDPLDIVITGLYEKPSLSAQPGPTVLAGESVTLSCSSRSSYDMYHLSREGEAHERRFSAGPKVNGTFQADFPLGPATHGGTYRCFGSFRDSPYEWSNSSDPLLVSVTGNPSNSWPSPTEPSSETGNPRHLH

In the case of “monoclonal antibody DF200 produced by hybridoma DF200”, the percent inhibition of second antibody binding [1] is reported as 27%, the percent inhibition of second antibody binding [2] is reported as 75% and the percent inhibition of second antibody binding [3] is reported as 15%. For the same substance, the percent inhibition of second antibody binding [4] was 87%, the percent inhibition of second antibody binding [5] was 15% and the RU, second antibody alone [6] was 900 RU. The percent inhibition of second antibody binding [7] was 92%, the percent inhibition of second antibody binding [8] was 75% and the percent inhibition of second antibody binding [9] was 90%. The RU, second antibody alone [10] was 600 RU and 350 RU, the percent inhibition of second antibody binding [11] was 20% and the percent inhibition of second antibody binding [12] was 15%. The percent inhibition of second antibody binding [13] was 4%, the percent inhibition of second antibody binding [14] was 16% and the percent inhibition of second antibody binding [15] was 80%. The percent inhibition of second antibody binding [16] was 70% and the percent inhibition of second antibody binding [17] was 62%.
With GL183 (IgG1 anti KIR2DL3) (antibody) the percent inhibition of second antibody binding [18] was 76%, the RU, second antibody alone [19] was 1240 RU and 800 RU and 620 RU and the percent inhibition of second antibody binding [20] was 18%. For the same substance, the percent inhibition of second antibody binding [21] was 8%, the percent inhibition of second antibody binding [22] was 75% and the percent inhibition of second antibody binding [23] was 40%.
With monoclonal antibody NKVSF1 the percent inhibition of second antibody binding [24] was 95%, the percent inhibition of second antibody binding [25] was 12% and the percent inhibition of second antibody binding [26] was 100%. For the same substance, the RU, second antibody alone [19] was 2400 RU and 870 RU and 990 RU, the percent inhibition of second antibody binding [27] was 68% and the RU, second antibody alone [6] was 1350 RU. The percent inhibition of second antibody binding [28] was 100%, the percent inhibition of second antibody binding [29] was 95% and the percent inhibition of second antibody binding [30] was 18%. For the same substance, the RU, second antibody alone [10] was 545 RU and 475 RU, the percent inhibition of second antibody binding [31] was 90% and the percent inhibition of second antibody binding [32] was 15%. The percent inhibition of second antibody binding [33] was 2%, the percent inhibition of second antibody binding [34] was 90% and the percent inhibition of second antibody binding [35] was 8%. For the same substance, the percent inhibition of second antibody binding [36] was 45%, the percent inhibition of second antibody binding [37] was 85% and the percent inhibition of second antibody binding [38] was 13%.
EB6 (IgG1 anti KIR2DL1) (antibody) showed a percent inhibition of second antibody binding [39] of 23%, a percent inhibition of second antibody binding [40] of 65% and a percent inhibition of second antibody binding [41] of 60%. The RU, second antibody alone [10] was 460 RU and 260 RU, the percent inhibition of second antibody binding [42] was 57% and the percent inhibition of second antibody binding [43] was 40%. For the same substance, the percent inhibition of second antibody binding [44] was 48%.
